Experimental data from paper PMC12431651.
Where two headings read alike, the source gives them in different places.

Key:
[1] = molecular target: MED25 ACID (Homo sapiens) (UniProt Q71SY5); settings: cited from earlier work
[2] = molecular target: MED25 ACID (Homo sapiens) (UniProt Q71SY5); settings: cited from earlier work; remark: listed apart in the source
[3] = molecular target: MED25 ACID (Homo sapiens) (UniProt Q71SY5); experiment: ITC; settings: cited from earlier work
[4] = molecular target: MED25 ACID (Homo sapiens) (UniProt Q71SY5); settings: cited from earlier work; remark: listed apart in the source
[5] = molecular target: His-tagged MED25 ACID (aa 389–543) (human) (UniProt Q71SY5); experiment: BLI; His-MED25 ACID (1 µM) captured on Ni-NTA biosensors, NS1 proteins as analytes in 2-fold dilutions; 20 mM Tris pH 8.0, 200 mM NaCl, 1 mM TCEP, 0.05% Tween, 25°C; global fit, 1:1 model for NS1, 2:1 heterogeneous model for NS1Δα3 and the point mutants
[6] = molecular target: MED25 ACID (H1 interface) (Homo sapiens) (UniProt Q71SY5); experiment: NMR; settings: cited from earlier work
[7] = molecular target: MED25 ACID (Homo sapiens) (UniProt Q71SY5); experiment: NMR; settings: cited from earlier work
[8] = molecular target: MED25 ACID (Homo sapiens) (UniProt Q71SY5); settings: cited from earlier work; remark: listed apart in the source
[9] = molecular target: MED25 ACID (Homo sapiens) (UniProt Q71SY5); settings: cited from earlier work; remark: listed apart in the source
[10] = molecular target: MED25 ACID (Homo sapiens) (UniProt Q71SY5); settings: cited from earlier work; remark: listed apart in the source
[11] = molecular target: MED25 ACID (Homo sapiens) (UniProt Q71SY5); settings: cited from earlier work; remark: listed apart in the source
[12] = molecular target: MED25 ACID (Homo sapiens) (UniProt Q71SY5); settings: cited from earlier work; remark: listed apart in the source

Chain of His-tagged MED25 ACID (aa 389–543) (human) (Q71SY5 389-543): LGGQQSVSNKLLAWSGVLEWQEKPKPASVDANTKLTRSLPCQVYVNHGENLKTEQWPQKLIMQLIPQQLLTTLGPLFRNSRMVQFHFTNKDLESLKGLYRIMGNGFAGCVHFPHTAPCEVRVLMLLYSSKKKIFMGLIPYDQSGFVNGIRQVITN
Chain of MED25 ACID (Homo sapiens) (Q71SY5 389-543): as above
Chain of ATF6α TAD (P18850 40-66): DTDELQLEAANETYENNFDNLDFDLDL
Chain of p53 TAD2 (P04637 38-61): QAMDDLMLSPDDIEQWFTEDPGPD
Chain of MED25 ACID (H1 interface) (Homo sapiens) (Q71SY5 389-543): as the sequence (Q71SY5 389-543) above
Chain of p53 TAD (P04637 1-61): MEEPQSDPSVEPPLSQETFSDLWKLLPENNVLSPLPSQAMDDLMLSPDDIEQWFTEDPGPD
Chain of ERM TAD (P41161 38-68): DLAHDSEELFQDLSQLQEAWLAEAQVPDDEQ

Substance	Kd1 (binding mode 1) [5] [nM]	Kd2 (binding mode 2) [5] [nM]	ka1 (binding mode 1) [5] [M⁻¹ s⁻¹]	ka2 (binding mode 2) [5] [M⁻¹ s⁻¹]	kdis1 (binding mode 1) [5] [s⁻¹]	kdis2 (binding mode 2) [5] [s⁻¹]	also measured
ATF6α TAD (from UniProt P18850)	–	–	–	–	–	–	Kd [1]: 500 nM
ERM TAD (from UniProt P41161)	–	–	–	–	–	–	Kd [2]: 600 nM
NS1 (from UniProt P0DOE8)	–	–	–	–	–	–	Kd [3]: 15 nM; Kd [4]: 20 nM
NS1 E110A (natural protein)	1630	1320	120000	3000	0.19	0.0034	–
NS1 F56A (natural protein)	333	72	130000	20000	0.043	0.0014	–
NS1 I54A (natural protein)	71.2	28.3	200000	80000	0.014	0.0023	–
NS1 K112A (natural protein)	68.1	7.5	160000	140000	0.011	0.0011	–
NS1 M122A (natural protein)	42.3	9.4	210000	120000	0.009	0.0011	–
NS1 α3 peptide (from UniProt P0DOE8)	–	–	–	–	–	–	Kd [6]: 500000 nM; Kd [7]: 10000 nM
NS1Δα3 (NS1 aa 1–116) (domain or fragment)	615	850	80000	3000	0.05	0.0024	–
RSV NS1, full-length wild type (aa 1–139) (natural protein)	–	–	–	–	–	–	Kd [5]: 16.5 nM; koff [5]: 0.002 s⁻¹; kon [5]: 120000 M⁻¹ s⁻¹
VP16 TAD1 (from UniProt P06492)	–	–	–	–	–	–	Kd [8]: 1600 nM; Kd [9]: 1600 nM
VP16 TAD (from UniProt P06492)	–	–	–	–	–	–	Kd [10]: 50 nM
p53 TAD2 (from UniProt P04637)	–	–	–	–	–	–	Kd [11]: 8100 nM
p53 TAD (from UniProt P04637)	–	–	–	–	–	–	Kd [12]: 800 nM
